Measurements: paper PMC9982585

Target: Type I Human Collagen (human) (UniProt P02452)
Experiment: fluorescence polarisation; Cy5.5-labelled insulin formulated in saline (control) or in aCH (SPADE), mixed with a Type I human collagen solution at a predetermined w/w ratio; read immediately after mixing on a Molecular Devices Flexstation 3 plate reader

Sequence of UniProt P02452 (P02452 162-1218, chain 1 of 2): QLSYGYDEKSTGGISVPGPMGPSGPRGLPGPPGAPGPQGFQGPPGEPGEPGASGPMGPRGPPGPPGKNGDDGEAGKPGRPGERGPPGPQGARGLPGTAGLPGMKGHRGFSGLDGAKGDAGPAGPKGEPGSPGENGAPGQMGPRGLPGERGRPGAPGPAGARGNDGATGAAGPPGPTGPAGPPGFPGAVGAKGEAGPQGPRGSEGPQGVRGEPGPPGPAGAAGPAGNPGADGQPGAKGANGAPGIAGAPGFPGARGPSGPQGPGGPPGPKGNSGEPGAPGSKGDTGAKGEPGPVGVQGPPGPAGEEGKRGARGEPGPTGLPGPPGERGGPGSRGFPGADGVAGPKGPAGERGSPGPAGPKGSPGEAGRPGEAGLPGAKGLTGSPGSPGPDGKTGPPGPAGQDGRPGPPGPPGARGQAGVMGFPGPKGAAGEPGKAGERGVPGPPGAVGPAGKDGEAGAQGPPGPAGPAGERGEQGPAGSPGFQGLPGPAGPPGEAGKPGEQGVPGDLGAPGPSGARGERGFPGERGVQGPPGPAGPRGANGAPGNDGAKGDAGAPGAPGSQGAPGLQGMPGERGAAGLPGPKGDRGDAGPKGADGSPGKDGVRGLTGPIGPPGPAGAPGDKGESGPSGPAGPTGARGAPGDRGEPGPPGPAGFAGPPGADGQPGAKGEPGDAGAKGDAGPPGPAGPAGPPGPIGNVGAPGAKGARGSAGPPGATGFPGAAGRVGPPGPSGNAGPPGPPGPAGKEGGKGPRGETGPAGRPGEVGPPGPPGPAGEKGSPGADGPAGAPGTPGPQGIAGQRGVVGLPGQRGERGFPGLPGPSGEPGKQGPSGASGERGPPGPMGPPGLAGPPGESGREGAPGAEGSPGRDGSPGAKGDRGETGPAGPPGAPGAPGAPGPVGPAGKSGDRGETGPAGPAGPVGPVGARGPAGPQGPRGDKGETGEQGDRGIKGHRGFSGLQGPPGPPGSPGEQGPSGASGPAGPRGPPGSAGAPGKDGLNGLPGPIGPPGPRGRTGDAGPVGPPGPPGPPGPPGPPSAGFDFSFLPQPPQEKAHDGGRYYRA
Sequence of UniProt P02452 (P08123 80-1119, chain 2 of 2, further chain): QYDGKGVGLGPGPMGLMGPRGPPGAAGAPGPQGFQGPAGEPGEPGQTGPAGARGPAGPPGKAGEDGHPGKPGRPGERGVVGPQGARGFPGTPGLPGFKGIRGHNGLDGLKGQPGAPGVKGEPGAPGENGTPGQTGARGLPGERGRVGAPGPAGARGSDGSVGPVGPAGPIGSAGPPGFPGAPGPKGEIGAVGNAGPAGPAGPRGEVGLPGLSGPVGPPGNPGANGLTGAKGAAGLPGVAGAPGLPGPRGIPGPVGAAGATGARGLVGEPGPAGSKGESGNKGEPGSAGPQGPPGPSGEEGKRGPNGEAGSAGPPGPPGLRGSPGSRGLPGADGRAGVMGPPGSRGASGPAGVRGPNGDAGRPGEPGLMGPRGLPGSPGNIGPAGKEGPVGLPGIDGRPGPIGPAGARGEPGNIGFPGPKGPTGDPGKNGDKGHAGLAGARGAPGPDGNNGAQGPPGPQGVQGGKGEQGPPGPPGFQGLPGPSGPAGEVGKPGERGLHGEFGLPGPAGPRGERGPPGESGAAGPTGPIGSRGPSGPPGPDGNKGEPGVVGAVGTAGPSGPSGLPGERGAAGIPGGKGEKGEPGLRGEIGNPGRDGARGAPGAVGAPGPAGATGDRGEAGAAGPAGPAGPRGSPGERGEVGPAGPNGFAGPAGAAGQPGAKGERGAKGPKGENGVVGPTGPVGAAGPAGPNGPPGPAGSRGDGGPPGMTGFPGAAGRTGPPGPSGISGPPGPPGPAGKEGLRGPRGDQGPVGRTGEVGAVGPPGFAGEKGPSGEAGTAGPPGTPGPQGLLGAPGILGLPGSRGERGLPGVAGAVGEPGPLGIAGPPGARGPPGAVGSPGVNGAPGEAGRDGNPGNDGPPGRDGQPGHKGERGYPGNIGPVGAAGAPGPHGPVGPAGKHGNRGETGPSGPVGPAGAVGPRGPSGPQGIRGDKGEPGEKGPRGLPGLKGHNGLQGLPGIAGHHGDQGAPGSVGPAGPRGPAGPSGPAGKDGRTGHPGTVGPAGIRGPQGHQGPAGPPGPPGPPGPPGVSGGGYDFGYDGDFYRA

Substance: Cy 5.5 fluorescently-labeled insulin (ligand)
- average polarisation of the saline control relative to the aCH (SPADE) formulation: 1.5 fold
